From the supplement of paper PMC7125110
± gives the standard error. This sample holds only a part of the variants without activity.

B1: glmS ribozyme (parent)
chain: AUAAAAGCGCCAGAACUACAGAAAUGUAGUUGACGAGGAGGAGGUUUAUCGAAUUUUCGGCGGAUGCCUCCAAA

Experiments:
Conditions in all cases: with glucosamine-6-phosphate
[1] = variants of: B1; test: self-cleavage kobs at 160 uM GlcN6P; higher = faster cleavage; RNA array
Outline: (§1)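 A hybridised Cy3 probe tracked barcoded ribozyme variants, transcribed in situ by E. coli RNA polymerase on sequenced MiSeq chips, at 37 °C. The variants received 40 μM to 10 mM glucosamine-6-phosphate in HEPES/KCl/Mg(OAc)2 buffer. kobs came from decay fits and kcat and KM from weighted Michaelis–Menten fits.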

[2] = variants of: B1; test: self-cleavage kobs at 640 uM GlcN6P; higher = faster cleavage; RNA array
Outline: as §1

[3] = variants of: B1; test: self-cleavage kobs at 2500 uM GlcN6P; higher = faster cleavage; RNA array
Outline: as §1

[4] = variants of: B1; test: self-cleavage kobs at 10000 uM GlcN6P; higher = faster cleavage; RNA array
Outline: as §1

Variant	self-cleavage kobs at 160 uM GlcN6P [1]	self-cleavage kobs at 640 uM GlcN6P [2]	self-cleavage kobs at 2500 uM GlcN6P [3]	self-cleavage kobs at 10000 uM GlcN6P [4]
G29U U45C U56C	< 1e-05 s⁻¹	–	–	–
C16U A53G C70A	–	0.000224 ± 3.5e-05 s⁻¹	0.000232 ± 6.5e-05 s⁻¹	–
U30A A48C C58U G59C	–	< 1e-05 s⁻¹	–	–
A6U U47A A53U	< 1e-05 s⁻¹	–	–	–
U2A	–	0.0236 ± 0.0098 s⁻¹	–	–
A53G G60A C61G	–	< 1e-05 s⁻¹	–	–
C11A A14C G44A G66U	–	< 1e-05 s⁻¹	< 1e-05 s⁻¹	–
A39U A42G U65G	–	0.000684 ± 0.00016 s⁻¹	–	–
G32C A39C U45A U56G	< 1e-05 s⁻¹	–	–	–
G38U G60C	< 1e-05 s⁻¹	< 1e-05 s⁻¹	–	–
A6U G32C G62U	< 1e-05 s⁻¹	–	–	–
A36G A39C U47G	–	< 1e-05 s⁻¹	< 1e-05 s⁻¹	< 1e-05 s⁻¹
G43C C50A	–	< 1e-05 s⁻¹	< 1e-05 s⁻¹	–
G37A U49C	< 1e-05 s⁻¹	< 1e-05 s⁻¹	< 1e-05 s⁻¹	< 1e-05 s⁻¹
U54A U65A C68G	–	5.85e-05 ± 2.8e-05 s⁻¹	0.000194 ± 6.9e-05 s⁻¹	–
A14C A15C A39U G40U U49C	–	< 1e-05 s⁻¹	–	–
G40A A48G C50G	< 1e-05 s⁻¹	–	< 1e-05 s⁻¹	–
G7U A53C	< 1e-05 s⁻¹	< 1e-05 s⁻¹	–	< 1e-05 s⁻¹
G13C G43U G59U	–	< 1e-05 s⁻¹	< 1e-05 s⁻¹	–
C11U U30C G43A	–	< 1e-05 s⁻¹	–	–
C10A C67G C70A	–	0.000293 ± 9.2e-05 s⁻¹	–	–
C8U G40C C71U	–	< 1e-05 s⁻¹	< 1e-05 s⁻¹	–
U45G U46C C61A G66U	–	< 1e-05 s⁻¹	< 1e-05 s⁻¹	–
A12U C34A	< 1e-05 s⁻¹	< 1e-05 s⁻¹	–	–
G13U U56C A64G	–	< 1e-05 s⁻¹	–	–
A12G U30A G44A	–	< 1e-05 s⁻¹	–	–

Variant	self-cleavage kobs at 160 uM GlcN6P [1]	self-cleavage kobs at 640 uM GlcN6P [2]	self-cleavage kobs at 2500 uM GlcN6P [3]	self-cleavage kobs at 10000 uM GlcN6P [4]
U30A U54A C67U C68A	3.56e-05 ± 1.7e-05 s⁻¹	–	4.46e-05 ± 2.1e-05 s⁻¹	–
G32A G51U A52U G60C G62C	–	< 1e-05 s⁻¹	–	–
C8G G41U A48U C70U	–	< 1e-05 s⁻¹	–	–
C10U U46A U49A G62A	–	< 1e-05 s⁻¹	< 1e-05 s⁻¹	–
U47C A52G G66A	–	5.64e-05 ± 1.2e-05 s⁻¹	0.000112 ± 2.4e-05 s⁻¹	–
U31G G44U U46G C58A	–	< 1e-05 s⁻¹	–	–
C8U A42G A48C	–	< 1e-05 s⁻¹	< 1e-05 s⁻¹	–
G7U C8G G51C	< 1e-05 s⁻¹	< 1e-05 s⁻¹	< 1e-05 s⁻¹	–
G29A A48U G62C	–	< 1e-05 s⁻¹	–	–
A6U C16U G40U C67A	–	< 1e-05 s⁻¹	< 1e-05 s⁻¹	–
A12C A52U U57A	–	0.000131 ± 2.7e-05 s⁻¹	0.000458 ± 5.1e-05 s⁻¹	–
C16G G51A A64U	–	< 1e-05 s⁻¹	–	–
C8U G9U A15C G44U	–	< 1e-05 s⁻¹	< 1e-05 s⁻¹	–
G7U G9A G40C	–	< 1e-05 s⁻¹	< 1e-05 s⁻¹	–
C8G G9U C10G	–	< 1e-05 s⁻¹	–	–
G40A G41A C71A	–	6.52e-05 ± 1.3e-05 s⁻¹	9.76e-05 ± 1.9e-05 s⁻¹	–
G7A A48U A53U U65A	< 1e-05 s⁻¹	< 1e-05 s⁻¹	–	–
A6C A14U U55G	–	< 1e-05 s⁻¹	–	–
C8U A14U G37U G41U	< 1e-05 s⁻¹	< 1e-05 s⁻¹	< 1e-05 s⁻¹	–
A14C C16G G38A A48G U49A	< 1e-05 s⁻¹	–	–	–
G29C U31G A36U	–	< 1e-05 s⁻¹	–	–
U45C A52G C70U	–	4.7e-05 ± 1.6e-05 s⁻¹	6.92e-05 ± 1.3e-05 s⁻¹	–
G37A G40U G43C	–	< 1e-05 s⁻¹	–	–
A42G U45C G59C G62U C68U	–	< 1e-05 s⁻¹	–	–
A14G A42C G63U	–	< 1e-05 s⁻¹	–	–
C10U A39U G41U	–	< 1e-05 s⁻¹	–	–

Variant	self-cleavage kobs at 160 uM GlcN6P [1]	self-cleavage kobs at 640 uM GlcN6P [2]	self-cleavage kobs at 2500 uM GlcN6P [3]	self-cleavage kobs at 10000 uM GlcN6P [4]
U30G U47A G60U	–	< 1e-05 s⁻¹	–	–
A12G A36U	–	< 1e-05 s⁻¹	–	–
G9A U65G C71G	< 1e-05 s⁻¹	< 1e-05 s⁻¹	< 1e-05 s⁻¹	–
C50G G51A	< 1e-05 s⁻¹	–	–	< 1e-05 s⁻¹
G29U G37A U49A C58G G62U	–	< 1e-05 s⁻¹	–	–
G7U A12G A48U G63U	–	< 1e-05 s⁻¹	–	–
G29U C34U C50G C70U	–	0.000136 ± 2.9e-05 s⁻¹	8.93e-05 ± 2.5e-05 s⁻¹	–
C11G G35C A52U	–	< 1e-05 s⁻¹	–	–
G40U U46C U55G	–	0.000194 ± 6.6e-05 s⁻¹	–	–
U47A C58U U65C	–	< 1e-05 s⁻¹	–	–
G9A C10G G44A C70U	–	< 1e-05 s⁻¹	< 1e-05 s⁻¹	–
A15U C16A C71U	–	0.000111 ± 3.7e-05 s⁻¹	0.000598 ± 0.00019 s⁻¹	–
G29U G43C U47A G63A	< 1e-05 s⁻¹	< 1e-05 s⁻¹	< 1e-05 s⁻¹	–
A12G G35A	< 1e-05 s⁻¹	< 1e-05 s⁻¹	–	< 1e-05 s⁻¹
A36C U49C	–	< 1e-05 s⁻¹	–	< 1e-05 s⁻¹
A14G C16A G40A	–	0.000169 ± 3e-05 s⁻¹	0.00023 ± 6.8e-05 s⁻¹	–
G37A A39U U54C	8.28e-05 ± 3.4e-05 s⁻¹	0.00016 ± 1.9e-05 s⁻¹	0.000423 ± 6.7e-05 s⁻¹	–
C11G A15G U65C	< 1e-05 s⁻¹	–	–	–
G13C G29A G40C	–	< 1e-05 s⁻¹	–	–
U49C G63C C67G C68G	–	< 1e-05 s⁻¹	–	–
G29A G32U G40U G44U	–	< 1e-05 s⁻¹	< 1e-05 s⁻¹	–
C34G U49A G66A	–	< 1e-05 s⁻¹	–	–
C10U A33G G51A A64C	< 1e-05 s⁻¹	–	–	–
C11U A48U G66U	–	< 1e-05 s⁻¹	–	–
A15G G63A U69G	4.54e-05 ± 2e-05 s⁻¹	0.000141 ± 4.8e-05 s⁻¹	–	–
C10U A33G U54A	–	< 1e-05 s⁻¹	–	–

Variant	self-cleavage kobs at 160 uM GlcN6P [1]	self-cleavage kobs at 640 uM GlcN6P [2]	self-cleavage kobs at 2500 uM GlcN6P [3]	self-cleavage kobs at 10000 uM GlcN6P [4]
C50G G60C C70A	–	0.000161 ± 5.8e-05 s⁻¹	5.41e-05 ± 2.7e-05 s⁻¹	–
C16U U49G	–	0.000174 ± 4.8e-05 s⁻¹	0.000685 ± 0.00023 s⁻¹	0.000387 ± 6.5e-05 s⁻¹
A36G A64U C71U	< 1e-05 s⁻¹	< 1e-05 s⁻¹	< 1e-05 s⁻¹	–
C8U A15C G32U	–	< 1e-05 s⁻¹	< 1e-05 s⁻¹	–
G32U G41U A52G G60A	–	< 1e-05 s⁻¹	–	–
C8G C58A U65G C71A	–	< 1e-05 s⁻¹	–	–
G41A C50G	< 1e-05 s⁻¹	< 1e-05 s⁻¹	< 1e-05 s⁻¹	< 1e-05 s⁻¹
A6U C10U G35C A48U G63A	–	< 1e-05 s⁻¹	–	–
G13A G59A G62A	–	< 1e-05 s⁻¹	–	–
G9C A12C	–	< 1e-05 s⁻¹	< 1e-05 s⁻¹	< 1e-05 s⁻¹
G37U G38A G41U U49A A52U G59U C67A	–	< 1e-05 s⁻¹	–	–
C8U C16G A52U U65G G66A	–	< 1e-05 s⁻¹	< 1e-05 s⁻¹	–
G7U G9U U31A G37A A52C C67U U69C	–	< 1e-05 s⁻¹	–	–
G29C A33G G40A U56C	–	< 1e-05 s⁻¹	–	–
G59U U65A C67U	< 1e-05 s⁻¹	–	–	–
G7U A36G G38U	–	< 1e-05 s⁻¹	–	–
G7A U31G G41U C68U	–	< 1e-05 s⁻¹	–	–
G29A G43C A52C C61U	–	< 1e-05 s⁻¹	< 1e-05 s⁻¹	–
G43A U45A A53U G62C A64U	–	< 1e-05 s⁻¹	< 1e-05 s⁻¹	–
A12U U46C A52G A53G	–	0.000183 ± 4.4e-05 s⁻¹	0.00036 ± 8.9e-05 s⁻¹	–
G29U G37A C50G C68G	–	0.000384 ± 0.00016 s⁻¹	5.37e-05 ± 1.7e-05 s⁻¹	–
C10A G41C A48U	–	< 1e-05 s⁻¹	< 1e-05 s⁻¹	–
A33G G38U U49C C71U	–	< 1e-05 s⁻¹	< 1e-05 s⁻¹	–
A14C U46G G66A	–	0.000298 ± 5.1e-05 s⁻¹	0.000166 ± 3.6e-05 s⁻¹	–
C11A A39C C70G	< 1e-05 s⁻¹	< 1e-05 s⁻¹	< 1e-05 s⁻¹	–
G40C G66A C70A	–	9.02e-05 ± 2.4e-05 s⁻¹	0.000246 ± 6.6e-05 s⁻¹	0.000559 ± 0.0001 s⁻¹

Variant	self-cleavage kobs at 160 uM GlcN6P [1]	self-cleavage kobs at 640 uM GlcN6P [2]	self-cleavage kobs at 2500 uM GlcN6P [3]	self-cleavage kobs at 10000 uM GlcN6P [4]
C16A U54C G59U	–	< 1e-05 s⁻¹	–	–
C11A A15U A64C	–	< 1e-05 s⁻¹	< 1e-05 s⁻¹	–
G60U A64C G66U C70A	< 1e-05 s⁻¹	–	–	–
C10U G13C	< 1e-05 s⁻¹	–	–	< 1e-05 s⁻¹
G41C U45G C71U	–	4.68e-05 ± 1.6e-05 s⁻¹	0.000157 ± 3.9e-05 s⁻¹	–
C10U G35C G62C	–	< 1e-05 s⁻¹	< 1e-05 s⁻¹	–
A6G C50G U54C	5.66e-05 ± 2e-05 s⁻¹	5.17e-05 ± 2.4e-05 s⁻¹	–	–
A6G A14G A33U	–	< 1e-05 s⁻¹	–	–
A6G A33U U57C C58A	< 1e-05 s⁻¹	< 1e-05 s⁻¹	–	–
U45C A53U C67G	–	0.00389 ± 0.0016 s⁻¹	–	–
C8G C10U G51U A53U	< 1e-05 s⁻¹	< 1e-05 s⁻¹	–	–
C11U A42U U55G G63U C68U	–	< 1e-05 s⁻¹	< 1e-05 s⁻¹	–
A6U A12G G59C C67A	–	< 1e-05 s⁻¹	–	–
A6G A36G G41A	–	< 1e-05 s⁻¹	–	< 1e-05 s⁻¹
C8G G35U G66A	< 1e-05 s⁻¹	< 1e-05 s⁻¹	–	–
G35A G62C	< 1e-05 s⁻¹	< 1e-05 s⁻¹	< 1e-05 s⁻¹	–
C11G A33C G35C G62A	< 1e-05 s⁻¹	< 1e-05 s⁻¹	–	–
A12G U45C C50U	–	< 1e-05 s⁻¹	< 1e-05 s⁻¹	–
A12G G41A G59U	–	< 1e-05 s⁻¹	< 1e-05 s⁻¹	–
A12U A53C C67U	–	0.00253 ± 0.0006 s⁻¹	–	–
A14C A36G U49C	–	< 1e-05 s⁻¹	< 1e-05 s⁻¹	–
U30A G51U	< 1e-05 s⁻¹	< 1e-05 s⁻¹	< 1e-05 s⁻¹	< 1e-05 s⁻¹
